Data taken from the supplement of paper PMC9170038.

Test system: MS2 coat protein
Assay: apparent KD of MS2 coat protein; designed switch direction (-1 OFF switch, 1 ON switch): -1; higher = weaker reporter binding
Outline: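 The apparent KD reported per design is the median over clusters of curve fits to normalised cluster fluorescence. The RNA switches were transcribed on Illumina chips by stalled E. coli RNA polymerase. SNAP-549-labelled MS2 coat protein was titrated from 0.7 or 1.5 nM, doubling up to 3 µM, in Tris-HCl pH 7.5 buffer containing KCl, MgCl2, BSA, DTT, tRNA and Tween-20, with no input, 200 uM small-molecule ligand, or an oligonucleotide input.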

[1] = Eterna round: R95, input ligand: microRNA oligo, concentration not stated
[2] = input ligand: microRNA oligo, concentration not stated
[3] = Eterna round: R95, input ligand: FMN 200 uM
[4] = Eterna round: R95, input ligand: none

Sequence | apparent KD of MS2 coat protein (input ligand: FMN 200 uM) | apparent KD of MS2 coat protein (input ligand: none) | apparent KD of MS2 coat protein [2] | other results
AUUGGGUGAGGAUAUCCAUCUGGAUCAGACUAGAUCCUGAUGGAGAAGGCACAUGAGGAUCACCCAUGUGAGUU [Eli 4x 4.34] (Eterna round: R97, puzzle: Exclusion 4) | 108 nM | 95.6 nM | – | –
AUUGUUGUUGUGAGGAUAUCGUUGAUUUUUUGAAACGAGAAGGCACAUGAGGAUCACCCAUGUUAGUUGUUGGU [JR_BMOE4_Sub057] (puzzle: Brourd's mod of Exclusion 4) | – | – | – | apparent KD of MS2 coat protein [1]: 77.3 nM
AUUUAAUUUAAUAAGAUCACAUGAGGAUCACCCAUGUAUAUAUAGGAUAUCAGCUCGUGUAGAGCUGAGAAGGAUAUAUACUAU [ExNG3/7-B3] (Eterna round: R96, puzzle: Exclusion NG 3) | – | – | 266 nM | –
AUUUAAUUUAAUAAGAUCACAUGAGGAUCACCCAUGUUAUAAUAGGAUAUCAGCUCGUGUAGAGCUGAGAAGGAUUAUAACAUG [ExNG3/9-A3] (Eterna round: R96, puzzle: Exclusion NG 3) | – | – | 22.2 nM | –
AUUUACAAGCUAAGAUCCUACAUGAGGAUCACCCAUGUGGUCCGGUGACGUGAGUCACCGGACUUAGCUCGUCUUGA [salish99_S_TOV1_R5_082] (Eterna round: R97, puzzle: Sensor, turn-off variant 1) | 32.9 nM | 36.8 nM | – | –
AUUUACAAGCUAAGAUCCUACAUGAGGAUCACCCAUGUGGUCCGGUGACGUGAGUCACCGGACUUAGCUCGUCUUGC [salish99_S_TOV1_R5_084] (Eterna round: R97, puzzle: Sensor, turn-off variant 1) | 37.2 nM | 38.1 nM | – | –
CAAAAGCUAGGAUAUACACAAAACGCCUGCAUGCAAACAUCACAUGAGGAUCACCCAUGUAGAAGGAGCGGAAA [EX2 A.21] (Eterna round: R97, puzzle: Exclusion 2) | 22.1 nM | 19.1 nM | – | –
CAAAAGGUAGGAUAUACGAAAAAAAAGGGUAGAAAAAAAACACAUGAGGAUCACCCAUGUAGAAGGACCAAAAU [salish99_ex2_r3_054] (puzzle: Exclusion 2) | – | – | – | apparent KD of MS2 coat protein [3]: 90.9 nM; apparent KD of MS2 coat protein [1]: 24.3 nM; apparent KD of MS2 coat protein [4]: 22.5 nM
CAAAGACCGGCAGGAUAUUGACCCAGAACAUGAGGAUCACCCAUGUCAACAAGGUUGGACCAGGGCGAGAAGGGCCACGCCAAA [Eternabot solution 22] (Eterna round: R96, puzzle: Exclusion NG 2) | 12.3 nM | 22.1 nM | 12.5 nM | –
CAAAUCAGGCGAGGAUAUCCGAAAGGAAGUGUAGGAGAAGGCGCGAAAUAUAAAACAUGAGGAUCACCCAUGUCGUCCCGUGUG [PowerStrip EXNG 1.21] (Eterna round: R96, puzzle: Exclusion NG 1) | 169 nM | 130 nM | 117 nM | –
CACCGUUAGUGAGGAUAUCUUACAUGAGGAUCACCCAUGUAAUAAAUGAGAAUUUCGGAUGUAUUAGAGAAGGCACAAAUCGGC [Ostricism 57 - Jieux - Exclusion NG 2] (Eterna round: R96, puzzle: Exclusion NG 2) | – | – | 17.7 nM | –
CACCUGAAGACAGGAUAUCAUACAUGAGGAUCACCCAUGUAAUAAAUGAGAAUUUCGAAUGUAAUUGAGAAGGGUCAAUAAGGC [Ostricism 96 - Jieux - Exclusion NG 2] (Eterna round: R96, puzzle: Exclusion NG 2) | 58.7 nM | 29.2 nM | 31.3 nM | –
CAGAGCAGACGGAGAUCCAACAUGAGGAUCACCCAUGUCUCAAAAGCUUUUUGCUCGUCUUAUCCUCCUCUGUUCAC [Esquitian 3] (Eterna round: R97, puzzle: Sensor, turn-off variant 1) | 26 nM | 30.4 nM | – | –
CAGAGCUUUUACUCGUCUUACAUGAGGAUCACCCAUGUCUCCUAGUGGGUAAAAUAUUAAGAAGAAAUUCUUAAUAA [jun14#1] (Eterna round: R97, puzzle: Sensor, turn-off variant 1) | 125 nM | 145 nM | – | –
CAGCCAAGUGUGAGGAUAUGGCGAUUGCAUUGACGUCAGAAGGCACAUGAGGAUCACCCAUGUGAGGUGGAUGA [Eternabot (L2) Solution 25] (Eterna round: R97, puzzle: Brourd's mod of Exclusion 4) | 45.8 nM | 755 nM | – | –
CAGCCUCAGGUUAGGAUAUACGCGUGGCCGAAGGAGUAGAAGGGACAUGAGGAUCACCCAUGUGGGUUCAAAUG [Onsoisgeso] (puzzle: Brourd's mod of Exclusion 4) | – | – | – | apparent KD of MS2 coat protein [3]: 292 nM; apparent KD of MS2 coat protein [1]: 151 nM; apparent KD of MS2 coat protein [4]: 270 nM

Sequence | apparent KD of MS2 coat protein (input ligand: FMN 200 uM) | apparent KD of MS2 coat protein (input ligand: none) | apparent KD of MS2 coat protein [2] | other results
CAGCGACAUGAGGAUCACCCAUGUGGCUUCGUUCCCGCUGGCAAGGAUAUCCAGUCUUCGUGAGAGGAGAAGGUGCAAAAUAAG [Atveso] (Eterna round: R96, puzzle: Exclusion NG 3) | 65.2 nM | 49.3 nM | 31.7 nM | –
CAGGAGUCAGGAUAUCGUUACCACGGAGUUGCUGUGCAUAACGAGAAGGGACAUGAGGAUCACCCAUGUGCCUC [Eternabot (L1) Solution 98] (Eterna round: R97, puzzle: Exclusion 4) | 57.6 nM | 22.3 nM | – | –
CAGGGCAUGCGAGGAUAUAGCAACAUGAGGAUCACCCAUGUAUAAGGGUGUCCAAGGCAUGCGCGCUAGAAGGCGCUGGUUCUC [Gemadi] (Eterna round: R96, puzzle: Exclusion NG 2) | 343 nM | 116 nM | 64.6 nM | –
CAGUACUGAGGAUAUACAUGAGGAUCACCCAUGUGCUCCAGCUAGGAAACUAGCAAAAGUAGAAGGCAGUACUG [828 mod 2 m8] (Eterna round: R97, puzzle: Exclusion 3) | 3960 nM | 101 nM | – | –
CAGUACUGAGGAUAUACAUGAGGAUCACCCAUGUGGUCCAGCUAGGAAACUAGCACGUGUAGAAGGCAGUACUG [Ex3: 840] (Eterna round: R96, puzzle: Exclusion 3) | 58.3 nM | 45.7 nM | 55.3 nM | –
CAGUACUGAGGAUAUACAUGAGGAUCACCCAUGUGUAGAUGAAAAUUAAUUUUAUUAUGUAGAAGGCGGUGCUG [JR_Ex3_Sub045] (Eterna round: R97, puzzle: Exclusion 3) | 85.1 nM | 23.3 nM | – | –
CAGUACUGAGGAUAUACAUGAGGAUCACCCAUGUGUUCCAGCUAGGAAACUAGCAAAAGUAGAAGGCAGUUCUG [salish99_ex3_r3_099x] (puzzle: Exclusion 3) | – | – | – | apparent KD of MS2 coat protein [1]: 19.3 nM
CAGUACUGAGGAUAUACAUGAGGAUCACCCAUGUGUUCCAGCUAGGAUACUAGCAAAAGUAGAAGGCAGUACUG [salish99_ex3_r3_095x] (Eterna round: R96, puzzle: Exclusion 3) | – | – | 20.9 nM | –
CAGUACUGAGGAUAUACAUGAGGAUCACCCAUGUGUUCCAGCUAGGAUACUAGCAAAAGUAGAAGGCAGUACUG [salish99_ex3_r3_095x] (puzzle: Exclusion 3) | – | – | – | apparent KD of MS2 coat protein [3]: 484 nM; apparent KD of MS2 coat protein [1]: 30.4 nM; apparent KD of MS2 coat protein [4]: 24 nM
CAGUACUGAGGAUAUACAUGAGGAUCACCCAUGUGUUCCAGCUUGGAAACUAGCAAAAGUAGAAGGCAGUACUG [salish99_ex3_r3_097x] (puzzle: Exclusion 3) | – | – | – | apparent KD of MS2 coat protein [1]: 16.6 nM
CAGUAUCUAGGAUAUACGCUGGGUACUAUUCUCAAGUCAGGACAUGAGGAUCACCCAUGUAGAAGGAGAAGCAU [EX2 A.28] (Eterna round: R97, puzzle: Exclusion 2) | 32.5 nM | 34 nM | – | –
CAGUGCUGACGGAGAUCCAACAUGAGGAUCACCCAUGUCUCAAAAGCUUUUUGCUCGUCUUAUCCUCCUCAGUACUC [Mat - Sensor, turn-off var - Eli Mod - D57] (Eterna round: R97, puzzle: Sensor, turn-off variant 1) | 14.6 nM | 19.2 nM | – | –
CAUGUCCAACGAGGAUAUGGGAAAGGAAGUGUACCAGAAGGCGUACGGACAUGAGGAUCACCCAUGUCGCGCGGCGCGAUGUGG [PowerStrip EXNG 1.1] (Eterna round: R96, puzzle: Exclusion NG 1) | 47.6 nM | 41.5 nM | 28.3 nM | –
CAUUAUUAUCGAGGAUAUCCUAUUGAAAUUCUAGGAGAAGGCGGACUCAACAUGAGGAUCACCCAUGUGGGACGGAUGCUAGGG [Ex NG1 #29] (Eterna round: R96, puzzle: Exclusion NG 1) | 15.9 nM | 17.8 nM | 19.6 nM | –
CAUUAUUAUCGAGGAUAUCCUAUUGAAAUUCUGGGAGAAGGCGGACUCAACAUGAGGAUCACCCAUGUGAGACGGAUGCUAGGG [Ex NG1 #27] (Eterna round: R96, puzzle: Exclusion NG 1) | – | – | 15 nM | –
